Biological target: SPE-7 IgE (DNP-specific murine IgE/λ, highly cytokinergic) (murine)

IC50 of recombinant SPE-7 IgE Fab (30–600 nM) for inhibition of LAD-2 cell TNF-α release evoked by 30 nM SPE-7 IgE; pair blocked: 'free' SPE-7 IgE with receptor-bound SPE-7 IgE: 170 nM
IC50 of recombinant SPE-7 IgE Fab (30–600 nM) for inhibition of LAD-2 mast cell degranulation induced by 30 nM SPE-7 IgE; pair blocked: 'free' SPE-7 IgE with receptor-bound SPE-7 IgE: 190 nM
Substance: recombinant SPE-7 IgE Fab

Source: article PMC4402612
